Experimental data: the supplement of paper PMC9170038

How the values were obtained:
MS2 coat protein [1] = assay: apparent KD of MS2 coat protein, switch OFF state (with FMN for OFF switches, without FMN for ON switches); designed switch direction (-1 OFF switch, 1 ON switch): -1; higher = weaker reporter binding; conditions: FMN input: 0 or 200 uM; Eterna round: R93 (includes R88 designs)
Outline: (§1)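 Designed RNA switches were transcribed on-chip from Illumina sequencing clusters. They were then titrated with SNAP-549-labelled MS2 coat protein (twofold steps, 0.7 or 1.5 nM to 3 µM; 0.8–1.5 h to 10–20 min per step) in 100 mM Tris-HCl pH 7.5, 80 mM KCl, 4 mM MgCl2, without or with constant ligand. Apparent KD is the per-design median of normalised cluster binding-curve fits.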

MS2 coat protein [2] = assay: apparent KD of MS2 coat protein, switch ON state; designed switch direction (-1 OFF switch, 1 ON switch): -1; higher = weaker reporter binding; conditions: FMN input: 0 or 200 uM; Eterna round: R93 (includes R88 designs)
Outline: as §1

Sequence	apparent KD of MS2 coat protein (MS2 coat protein [1]) [nM]	apparent KD of MS2 coat protein (MS2 coat protein [2]) [nM]
AAGAAGUUAGGAUAUGCUGCUCGUCACAAAAGUGAUGAGUAGCAGAAGGGACAUGAGGAUCACCCAUGUAAAGA [JL eternac mod 5]	24.1	36.7
CGCUAGUCAGGAUAUACAAACAUGUCAAAAGACGUGAAAAAACAUGAGGAUCACCCAUGUAGAAGGGACUAGCG [Mat - Exclusion 2 - JL mod - D18]	17.7	15.7
GGUUGUGAAGGAUAUACAUGAGGAUCACCCAUGUGAGAGAAAAAAGUGAGAAAGAAAAGUAGAAGGUCGUGACG [salish99-ex3-73]	40.2	34.7
AAGAAGAGAGGAUAUACUAAAGAAAUGAAAAGAAAGAAAGAACAUGAGGAUCACCCAUGUAGAAGGCUCAAGAA [Snaaib]	18.1	27.8
AGAAAACAUGAGGAUCACCCAUGUGAGGAUAUCGAUGUCCAAGACCUGGUGCGGGACUCGAGAAGGCACUGGGA [salish99-ex1-92]	44.8	41.4
GAUCCACAUGAGGAUCACCCAUGUAAGGAUAUUUAAAACCGGAGACAACCCUCCGAAGAAAGAAGGUACAAAAC [Ququraes]	12.6	13
AGCUAGUCAGGAUAUACAAAAAUGCUAGAAGACGUAAGGGAACAUGAGGAUCACCCAUGUAGAAGGGACUAGCA [Diamond 45]	58.3	37.2
CUCAAGUCAGGAUAUAAAAGAAAAGAAGAGAAAGAAAAGAAUUAGAAGGGACAUGAGGAUCACCCAUGUAAGAA [EteRNA is fun!]	60.6	66.9
AAGAACGAAGGAUAUACAUGAAAGAAAGAAAAGAAAAGAAAACAUGAGGAUCACCCAUGUAGAAGGUCGUAGAA [EteRNA is fun!]	28.8	26.2
UGCAUGUAAGGAUAUGCAACCGGCGCACAUUAGCAGGUCAAGCAGAAGGUACAUGAGGAUCACCCAUGUGUCCG [Lalebiis]	99.4	26.9
UCGUGGUCAGGAUAUACAUGAGGAUCACCCAUGUAAAAGAACAUAAAGGAGAGACGACGUAGAAGGGACAAAUA [Ralasoena]	51.5	46.3
AGGAAACAUGAGGAUCACCCAUGUAAGGAUAUGUGAAAGAAAAGAAAAGAAAGAAGAAGCAGAAGGUACAAGAA [Anedjib]	47.2	34.9
AAAUAGUUAGGAUAUACAUGAGGAUCACCCAUGUGGACUUAUGGCGAGUAAUUUAGUGGUAGAAGGGACUAAAA [EX2 Malc#29]	47	46.2
AAAACGGCAGGAUAUACGAUUGGGAACUAGACCGAGGAACCACAUGAGGAUCACCCAUGUAGAAGGGCCAAAAA [Ex2 Malc#15]	96.1	24.2
AAAAAACAUGAGGAUCACCCAUGUAAGGAUAUGCUAAAAAACACGGAAAACGUGAAUAGCAGAAGGUACAAAAA [66%, Wbt, 30]	38.5	21.5
AAGAAACAAGGAUAUACAAGGAAGAAAGAAAAGAAAAGAAAACAUGAGGAUCACCCAUGUAGAAGGUGUUAGAA [EteRNA is fun!]	27.9	40.3
AAUUCACAUGAGGAUCACCCAUGUAAGGAUAUCGAAAUAAAACUAAACAAAAAACAAACGAGAAGGUACAAAAA [Exclusion 1 design 6]	23.3	25
AUAAUGUGAGGAUAUACAUGAGGAUCACCCAUGUAAUUAAAUAGGAGAGACACAAUUCGUAGAAGGUACAUUUA [JR_Exc003_Sub508]	27.7	29.4
GAUAGGCGAGGAUAUACAUGAGGAUCACCCAUGUAAGUAAGCCUGGCUGAAACUGAAUGUAGAAGGCGCACAUU [Ex3Try2_Neo]	39.6	16.2
AAAAAACAUGAGGAUCACCCAUGUAAGGAUAUGUAAAAUAAAAGAAAAAUAAAGAAAAGCAGAAGGUACAAAAA [JL wbt mod 19]	25	25.9
AAGAACAUAGGAUAUACAAAAUAAAAGAAAAGAAAGAAAGAACAUGAGGAUCACCCAUGUAGAAGGAUGAAGAA [Khakaure Senusret III]	24.4	39

Sequence	apparent KD of MS2 coat protein (MS2 coat protein [1]) [nM]	apparent KD of MS2 coat protein (MS2 coat protein [2]) [nM]
AACAGUACAGGAUAUACAUGAGGAUCACCCAUGUGAAAGAAAAGUGGCGUACCACAAAGUAGAAGGGUACUGAA [Mat - Exclusion 3 - JL mod - D28]	134	30.2
AGUCGGCGAGGAUAUACAUGAGGAUCACCCAUGUGAGAGAAAAAAGUGAGCAAGAAAAGUAGAAGGCGCUGACA [JL Lego Mod 2]	154	54.2
AUCUACCUAGGAUAUACAUGAGGAUCACCCAUGUACAGAUACAACAAGGGAAACACACGUAGAAGGAGGAAGAU [JR_Exc003_Sub1206]	60.8	25.8
AAAAAACAUGAGGAUCACCCAUGUGAGGAUAUGACGUAAAUAAAGAAAGAAUAAAUCGUCAGAAGGCACAAAAA [Mat - Exclusion 1 - Eli mod - D72]	40.3	31.4
CAAAGGUGAGGAUAUACAUAACUAUGACGAAAGUCAUAAAAACAUGAGGAUCACCCAUGUAGAAGGCACCACAA [E2 64% 1]	31.3	38.1
AAAAAAGGAGGAUAUACGAACAUGUCAAAAGACGUGAAGGGACAUGAGGAUCACCCAUGUAGAAGGUUUAAAAA [JL Wide Open 32]	15	48
AAAGGACGAGGAUAUACAUGAGGAUCACCCAUGUAAAAAACAUAAAAAAAGAAAUUAUGUAGAAGGCGUCCAAA [69%, Moding Meechl, 4]	17.8	18.1
AGCAAACAUGAGGAUCACCCAUGUUAGGAUAUGAACGAAAAUAAAUAAAAAUAAAAGUUCAGAAGGGACGAGCA [66%, Wbt, 28]	37.7	28.1
AAAAAGGGAGGAUAUACAUGAGGAUCACCCAUGUAAAAAAAAAAAAAAAAAAGGGAAGGUAGAAGGCCCAAAAA [Excls3-I]	21.1	64.6
AAAAAGGCAGGAUAUACAUGAGGAUCACCCAUGUAAAAAAAAAAAAAGGGAAAAAAAAGUAGAAGGGCCAAAAA [Khamudi]	48.5	35.8
AAGGGACAUGAGGAUCACCCAUGUCAGGAUAUCGGAAAAGGAAAAAUAAAAAAGAAGACGAGAAGGGACACCAA [Mat - Exclusion 1 - Eli mod - D77]	32.4	38.4
AACAAGACAGGAUAUACAUGAGGAUCACCCAUGUGAGAAUUAAGUGGCGUAACACAAAGUAGAAGGGUCAUGGA [Ruby 4]	56.2	38
AAAAAACGAGGAUAUACAAAAACAAAAGGAACAAAAUACAAACAUGAGGAUCACCCAUGUAGAAGGCGUAAAAA [Default title]	23.5	29.5
AAGAAUGCAGGAUAUACAAAAUAAAAGAAAAGAAAGAAAGAACAUGAGGAUCACCCAUGUAGAAGGGCGAAGAA [Sewadjkare Hori]	34.4	44.4
AAGAACGUAGGAUAUACAUGAGGAUCACCCAUGUAAAAGAAAGAAAAGGGAAAGAAAAGUAGAAGGACGAAGAA [Usermaatre-setpenre Ramesses II]	34.4	42.1
UUUAUGUGAGGAUAUCAGUAGUAAAAAAAUAAAAUUACUACUGAGAAGGCACAUGAGGAUCACCCAUGUGAAAA [EX4 340: Super Stable 40]	161	61.9
AUGAGAGCAGGAUAUGCAGGUGUGCCGGAAGAAAGAAGAAGACAUGAGGAUCACCCAUGUAGAAGGGCUAGCCC [Bibidi]	18.5	30
AGAAAGUGAGGAUAUACAUGAGGAUCACCCAUGUAGAACGAGAGUUAUAAAAAUGGAAGUAGAAGGCACAAAAG [Meechl MS2 Ex3]	32.8	28.3
AAAAAACAUGAGGAUCACCCAUGUGAGGAUAUGCGAAAAUAAAAUAAAUAAAUAAAAAGCAGAAGGCACACCAA [Mat - Exclusion 1 - Eli mod - D60]	41.1	25.3
AAAAAUGCAGGAUAUACAUGAGGAUCACCCAUGUUAGACCUGAAAAAAGGGAAAGAAAGUAGAAGGGCAUAAAA [Ex 3 May 30]	11.2	12.7
